Experimental data taken from patent US20030163841A1 (YALE UNIVERSITY, published 2003).

What was measured:
[1] = target: the molecule itself; assay: yeast two-hybrid, LacZ reporter
Excerpt: (C) Delimitation of Cop1 self-association domain utilizing the yeast two-hybrid system. For baits (Bait), Cop1 domain fragments were fused with the LexA DNA binding domain (LexA). For preys (Prey), the COP1 domain fragments were fused with the synthetic transcription activation domain (AD). Numbers and names at the left indicate a pairwise combination of bait and prey constructs in each row. The graph at the right indicates the relative LacZ reporter activity in yeast cells corresponding to combinations of bait and prey constructs presented in each row. For each pairwise combination, at least 8 individual transformants were used to measure the LacZ activity. Error bars represent standard deviation. Combination 1 (LexA: N282) and 2 (N282:AD) serve as negative controls.
pKS-RING and pKS-Coil are digested with EcoRI and XhoI, and rest of the COP1 domain cassettes in the pKSm vectors were digested with EcoRI. Fragments were then ligated into pEG202 or pJG4-5 to generate COP1 domains fused to the LexA DNA binding protein or the synthetic activation domain, respectively (Golemis et al., 1995). Generation of pEG-N282, pJG-N282, pJG-COP1, and pJG-ΔRING was described elsewhere (McNellis et al., 1996; Ang et al., 1998). To generate pJG-GUS-ΔRΔC, pRTL-GUS-ΔRΔC was cleaved with NcoI and XbaI and then ligated into NcoI/XbaI digested pKS-COP1. […]

[2] = target: the molecule itself; assay: chemical cross-linking (DSub or EGS) of in vitro translated protein, SDS-PAGE, fluorography
Method: Protein immunoblot analysis was performed exactly as described previously (McNellis et al., 1994a). pAR-COP1 , a FLAG-tagged COP1 that has an additional peptide […] at the N-terminus (Matsui et al., 1995), was in vitro transcribed and translated using TNT coupled reticulocyte lysate system (Promega) and radiolabelled with [³⁵S]methionine (Amersham). For chemical cross-linking, 2 μl of translation mix (with radiolabelled proteins) was diluted to 18 μl with a reaction buffer (100 mM potassium phosphate [pH 7.7]; 100 mM NaCl; 0.1 mM ZnSO₄; 10% glycerol; 0.1% NonidetP-40; 4 mM DTT) and cross-linked with 2 μl of freshly diluted Dsub or EGS in dimethyl sulfoxide. For a negative control, 2 μl of dimethyl sulfoxode was added to the reaction. After 20 min incubation at room temperature, the reaction was quenched by addition of 2 μl of 1 M glycine (for Dsub) or 200 mM lysine (for EGS) and 22 μl of 2× Laemmli SDS-PAGE buffer. Samples were boiled for 5 min, separated by 6% SDS-PAGE, and fluorographed after treatment with Amplify (Amersham).
To better understand the COP1 self-association, we performed a chemical cross-linking analysis of in-vitro translated COP1 protein in solution. A FLAG-COP1 epitope tagged protein was in-vitro translated and then cross-linked with either dimethylsuberimidate (DSub) or ethylene glycobis (succinimidylsuccinate) (EGS). […]

[3] = target: the molecule itself; assay: gel filtration (Superdex-200) of seedling extracts, immunoblot of fractions
Method: For gel filtration chromatography, 8-day-old light- or dark grown seedlings were homogenized with 2× gel filtration buffer containing 50 mM Tris-HCl (pH 7.5), 440 mM NaCl, 2 mM MgCl₂, 2 μM ZnSO₄, 0.5 mM PMSF and centrifuged for 5 min at 4° C. Total soluble protein was fractionated through a 25 ml Superdex-200 FPLC column (Pharmacia) with 1× gel filtration buffer at a flow rate of […]. All procedures were carried out at 4° C. and, for dark samples, under dim green safe light. Consecutive fractions of 0.5 ml each were collected after the void volume (7.5 ml), concentrated, and subjected to 10% SDS-PAGE followed by a protein immunoblot analysis. The molecular weight standards for size estimation of the native COP1 protein were as follows: blue dextran (void); thyroglobulin (669 kDa); ferritin (440 kDa); catalase (232 kDa); aldolase (158 kDa); BSA (67 kDa); ovalbumin (43 kDa); and ribonuclease A (13.7 kDa) (Sigma).
To confirm the presence of COP1 dimers in vivo, a gel-filtration analysis was performed using protein extracts from light- or dark-grown Arabidopsis wild-type seedlings. […] However, the COP1 peak was very broad and contained a broad shoulder toward the larger molecular size fractions (FIG. 1B). Therefore it is possible that a portion of COP1 may present as homo-oligomers or in heterogeneous associations with other molecules in vivo. […]

B1: Coil domain of COP1 (pKS-Coil cassette) (other)
chain: MDKLLKKTSARHVSKTASPLDQFREALQRGCDVSIKEVDNLLTLLAERKRKMEQEEAERNMQILLDFLHCLRKQKVDELNEVQTDLQYIKEDINAVERHRIDLYRARD
notes: The cassette used in yeast starts at aa104 (L104M); Fused to LexA or AD in yeast; also called coiled-coil domain
Does B1 bind [1]?
Result: binds

B2: FLAG-COP1 epitope tagged protein (pAR-COP1), in vitro translated and [35S]methionine labelled (other, Arabidopsis)
chain: DDADTKDDDDKMEEISTDPVVPAVKPDPRTSSVGEGANRHENDDGGSGGSEIGAPDLDKDLLCPICMQIIKDAFLTACGHSFCYMCIITHLRNKSDCPCCSQHLTNNQLYPNFLLDKLLKKTSARHVSKTASPLDQFREALQRGCDVSIKEVDNLLTLLAERKRKMEQEEAERNMQILLDFLHCLRKQKVDELNEVQTDLQYIKEDINAVERHRIDLYRARDRYSVKLRMLGDDPSTRNAWPHEKNQIGFNSNSLSIRGGNFVGNYQNKKVEGKAQGSSHGLPKKDALSGSDSQSLNQSTVSMARKKRIHAQFNDLQECYLQKRRQLADQPNSKQENDKSVVRREGYSNGLADFQSVLTTFTRYSRLRVIAEIRHGDIFHSANIVSSIEFDRDDELFATAGVSRCIKVFDFSSVVNEPADMQCPIVEMSTRSKLSCLSWNKHEKNHIASSDYEGIVTVWDVTTRQSLMEYEEHEKRAWSVDFSRTEPSMLVSGSDDCKVKVWCTRQEASVINIDMKANICCVKYNPGSSNYIAVGSADHHIHYYDLRNISQPLHVFSGHKKAVSYVKFLSNNELASASTDSTLRLWDVKDNLPVRTFRGHTNEKNFVGLTVNSEYLACGSETNEVYVYHKEITRPVTSHRFGSPDMDDAEEEAGSYFISAVCWKSDSPTMLTANSQGTIKVLVLAA
notes: range 1-675; Monomer 78 kDa, cross-linked product about 160 kDa; A second, lower band may start at an internal methionine of COP1; also called FLAG-tagged COP1
Does B2 bind [2]?
Result: binds

B3: endogenous Arabidopsis COP1 protein (extracts of wild-type seedlings) (other, UniProt P43254 1-675, looked up)
chain: MEEISTDPVVPAVKPDPRTSSVGEGANRHENDDGGSGGSEIGAPDLDKDLLCPICMQIIKDAFLTACGHSFCYMCIITHLRNKSDCPCCSQHLTNNQLYPNFLLDKLLKKTSARHVSKTASPLDQFREALQRGCDVSIKEVDNLLTLLAERKRKMEQEEAERNMQILLDFLHCLRKQKVDELNEVQTDLQYIKEDINAVERHRIDLYRARDRYSVKLRMLGDDPSTRNAWPHEKNQIGFNSNSLSIRGGNFVGNYQNKKVEGKAQGSSHGLPKKDALSGSDSQSLNQSTVSMARKKRIHAQFNDLQECYLQKRRQLADQPNSKQENDKSVVRREGYSNGLADFQSVLTTFTRYSRLRVIAEIRHGDIFHSANIVSSIEFDRDDELFATAGVSRCIKVFDFSSVVNEPADMQCPIVEMSTRSKLSCLSWNKHEKNHIASSDYEGIVTVWDVTTRQSLMEYEEHEKRAWSVDFSRTEPSMLVSGSDDCKVKVWCTRQEASVINIDMKANICCVKYNPGSSNYIAVGSADHHIHYYDLRNISQPLHVFSGHKKAVSYVKFLSNNELASASTDSTLRLWDVKDNLPVRTFRGHTNEKNFVGLTVNSEYLACGSETNEVYVYHKEITRPVTSHRFGSPDMDDAEEEAGSYFISAVCWKSDSPTMLTANSQGTIKVLVLAA
notes: range 1-675; Gel filtration peak at about 160 kDa is read as a dimer; The peak is broad, so oligomers, other partners and some monomer are not excluded; also called native COP1 protein
Does B3 bind [3]?
Result: binds
